We go through 167 variants from the RNAGym collection of RNA variant scans (doi:10.1073/pnas.2313332121).

The chains are these.
B1: TPR t1 (parent)
chain: GACCAAUCUGCCCUCAGAGCUCGAGAACAUCUUCGGAUGCAGAGGAGGCAGGCUUCGGUGGCGCGAUAGCGCCAACGUCCUCAACCUCCAAUGCAUCCCACCACAUGAUGAUGCCUGAAGAGCCUUGGUUUUUUG

Variants of B1 are the subject of the series. The series is described as follows: polymerase ribozyme fitness, log enrichment relative to wild type (log ratio); higher = more active; in vitro selection for triplet polymerase activity. The procedure, abridged: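 Each subunit of a heterodimeric triplet polymerase ribozyme was represented by a PCR-built, transcribed mutant library that underwent triplicate single-round in vitro selection with frozen incubation at −7 °C. Extended constructs were recovered by gel excision, streptavidin-bead capture and RT-PCR, and Illumina sequencing of input and output libraries kept genotypes with ≥10 input reads and ≥1 read per output. Fitness is the logarithm of genotype enrichment relative to wild-type enrichment, from inverse-variance-weighted replicate averages, with a logarithm base of 2.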
As to C8U C86A, the “polymerase ribozyme fitness (log ratio)” value is -1.13. As for C8U G117A, the figure is 0.294; as for C8U G117C, -3.02. Consider C8U G63C C123A U132A, for which the “polymerase ribozyme fitness (log ratio)” value turned out to be 1.06. As for C8U G52U G61C C73G U87C U130A, the “polymerase ribozyme fitness (log ratio)” value is -2.65.

As to U9A G45U, the “polymerase ribozyme fitness (log ratio)” value was -2.23. As for U9A G47A U96G, the figure is -0.976.

For the variant C8U G45C G71A C85A, the “polymerase ribozyme fitness (log ratio)” value is -3.29. As for C8U C11U A41G G45C G48U C73U C124A G128A, the “polymerase ribozyme fitness (log ratio)” value was -5.7. With C8U C12U, the “polymerase ribozyme fitness (log ratio)” value stood at 0.659. On to U9A C11U A66C G117U, for which the “polymerase ribozyme fitness (log ratio)” value was -5.04. In the case of U9A C98G, the “polymerase ribozyme fitness (log ratio)” value was -5.74.

As for C8U G51A A121C U131G, the “polymerase ribozyme fitness (log ratio)” value was -0.214. Consider C8U C72A A100C U132C, for which the “polymerase ribozyme fitness (log ratio)” value was -0.83. With C8U U38A C70U, the “polymerase ribozyme fitness (log ratio)” value is -1.62.

Turning to U9A G19C C85A U112A, the “polymerase ribozyme fitness (log ratio)” value is -0.364. As for C8U C62A C114G U126A, the figure is -3.89; as for C8U C49U, 0.318; as for U9A C89G, -2.53. The value for C8U C76A A118G was -0.712; that for U9A C101G was -1.55; that for C8U C53G C56A C86U U96G G117U was -2.48. As for U9A G48C C86A C101A C114U C124U, the figure is -2.84; as for C8U C15G A16U C70U A118C G120A C124U, -2.69; as for C8U U112A, 1.33. Consider U9A G19C C40G A43U G60U, for which the “polymerase ribozyme fitness (log ratio)” value was -3.06. The value for U9A C73U C123G U134C was 2.44; that for U9A C62G C97U U109G was -7.26; that for C8U C20G A111C C123A was -5.26. For C8U U130C, the “polymerase ribozyme fitness (log ratio)” value was determined as 0.805. The value for U9A A105C G122A was -1.54. As for U9A C12A C88U G127A, the figure is -2.52.

For the variant U9A C53A C86U, the “polymerase ribozyme fitness (log ratio)” value worked out at 0.27. As for C8U C13G C102A G122A C123G, the figure is -0.13; as for U9A G10C U54A C86A G110U U125A, -3.13. Take U9A C40G G42U: the “polymerase ribozyme fitness (log ratio)” value was -1.9. As for U9A A119G, the figure is 0.948. As for C8U C49U C94G C104U U106A U112C, the figure is -1.29; as for C8U U55C C73A C76G A121U, 1.02. The value for C8U G48A was -0.239; that for C8U C34A A119G was -1.9; that for U9A G10A A46U G69U C79U C102G was -3.8.

Regarding C8U A46G U54C C56A, the “polymerase ribozyme fitness (log ratio)” value is -0.306.

As to C8U C15G A37U, the “polymerase ribozyme fitness (log ratio)” value is -1.75. C8U G47C G52A G113A: the “polymerase ribozyme fitness (log ratio)” value is -3.3. Take C8U G36C G45U C64U C101A: the “polymerase ribozyme fitness (log ratio)” value was -1.02. Consider C8U C34A G44U G61U U130G, for which the “polymerase ribozyme fitness (log ratio)” value is -4.49. Regarding C8U C12U C88G, the “polymerase ribozyme fitness (log ratio)” value was -0.238.

Take C8U C12A C72U G117C: the “polymerase ribozyme fitness (log ratio)” value is -1.86. As for C8U C22G G39C, the figure is -4.04; as for U9A G17U A74C C82A U87C, -0.851. The value for U9A C104A was -0.737; that for C8U G63C was 0.00815. The value for C8U G63A was 0.00664; that for C8U G48U G71U A74U C104A G117A C124U was -6.05; that for U9A C62A C86A C98U was -2.77.

With C8U G39C G63A U92G, the “polymerase ribozyme fitness (log ratio)” value is -3.5. C8U C28U C73U: the “polymerase ribozyme fitness (log ratio)” value was -1.68.

C8U C53U C76U: the “polymerase ribozyme fitness (log ratio)” value turned out to be 0.843. The value for C8U C79A was -0.138; that for U9A G42A A43G G47U C56U was -3.28.

As for C8U U9C C12U G71U U132A, the “polymerase ribozyme fitness (log ratio)” value is 0.729. Regarding C8U G42U C73G, the “polymerase ribozyme fitness (log ratio)” value was -2.13. As to C8U U9C G52U U55C, the “polymerase ribozyme fitness (log ratio)” value is -0.0264. As for C8U G57A, the figure is -0.0154; as for U9A C70U A74G C104A C123A, -3.22; as for C8U C70G U125A U130G, -3.05. The value for U9A C12U A27C C53U was -2.63. As for C8U G36A, the figure is -0.0427. In the case of U9A C53U C123G, the “polymerase ribozyme fitness (log ratio)” value came to 1.66. Consider C8U C62G U106G U112A, for which the “polymerase ribozyme fitness (log ratio)” value was -2.63. With C8U G52C U78C G110C, the “polymerase ribozyme fitness (log ratio)” value was -5.87. On to C8U C101A, for which the “polymerase ribozyme fitness (log ratio)” value is -0.038. The value for C8U C101U was 0.244. For C8U G44A G60U A121C G122U, the “polymerase ribozyme fitness (log ratio)” value was -1.02. As for U9A A50U C62G, the figure is -2.77. As for C8U A46G C56G, the figure is -0.511; as for U9A G48C C72U U78C C86A C101A C114U C124U, -3.88; as for C8U C123A U132A, 1.43.

On to U9A C20G U116C, for which the “polymerase ribozyme fitness (log ratio)” value is -2.71. The value for C8U U96A was -0.0448.

Regarding C8U A83U C85U C123G C124G, the “polymerase ribozyme fitness (log ratio)” value was 2.01. As for C8U C20G A95G G113U G128A, the figure is -2.96; as for U9A A46C A50C G61U C82G, -1.26; as for C8U G61C U116A, -3.22. With C8U G42U G48U C79A G122A U132A, the “polymerase ribozyme fitness (log ratio)” value is -4.72. The value for C8U C12G G17C C80U A90U was -2.49; that for U9A G44U C123A was 0.274. As for C8U G36U G58C A91C U96C A111U A121U, the figure is -5.93. The value for C8U A75U C89U A90U C99U G120A U130G U131A was -4.88. Regarding U9A C40G G71U, the “polymerase ribozyme fitness (log ratio)” value was -0.173. Turning to C8U U38G C72A U92A C115G, the “polymerase ribozyme fitness (log ratio)” value is -5.69. In the case of U9A A16U A43U A91G, the “polymerase ribozyme fitness (log ratio)” value was -0.987. As for U9A G44C U55C U109G, the figure is -4.29. As to C8U C28A C72A A83C G110A, the “polymerase ribozyme fitness (log ratio)” value amounted to 1.02. As for U9A G48U A50U G60A C86G, the figure is -1.49; as for C8U U59A G60C G117U U131C, -0.987; as for C8U C13G G69A C72A, -4.71. In the case of U9A A46G C53G G113U, the “polymerase ribozyme fitness (log ratio)” value was -1.54. As for C8U C73A A84U G128A, the figure is -1.97; as for C8U C53U U92G U131G, -2.8. For C8U U14A G36A C72U, the “polymerase ribozyme fitness (log ratio)” value is -2.09.

Take C8U G45A C72G: the “polymerase ribozyme fitness (log ratio)” value is -0.658. C8U A46C G120C: the “polymerase ribozyme fitness (log ratio)” value is 1.49.

Turning to C8U C22G C64U U112A U125A U130C, the “polymerase ribozyme fitness (log ratio)” value is -2.33. Consider U9A C31G G61U A83C G107C, for which the “polymerase ribozyme fitness (log ratio)” value was -1.25. As for C8U C11U U38G A43G C104U, the figure is -2.94; as for C8U G61A A95U G120A, 1.6. The value for C8U G77A was 0.143; that for C8U U55G G77U G113C was -1.83; that for C8U G10A C124A was 2.42. As for U9A C13U C62A C79G C94A U132A, the figure is -4.57; as for C8U G45A G52C C123G, -0.41; as for U9A A26U C101G, -4.48.

Consider U9A G45U G113U G122U, for which the “polymerase ribozyme fitness (log ratio)” value is -2.61. For the variant C8U G10A G42A G45A C53U C85A, the “polymerase ribozyme fitness (log ratio)” value was -4.02. As for C8U U96A C123G, the figure is 1.65. On to C8U C40U G47A, for which the “polymerase ribozyme fitness (log ratio)” value was -1.72.

Take C8U G45C: the “polymerase ribozyme fitness (log ratio)” value was -0.263. The value for C8U C15U C53A was -0.442; that for C8U C11U G19A C73A A74C C86A was -3.7; that for U9A A27C G71A G117C was -6.31. On to C8U U106A G127U, for which the “polymerase ribozyme fitness (log ratio)” value turned out to be 0.137. As for U9A C98A C104U, the figure is -3.44. The value for C8U C13A C20A G113A C123G was -1.33. On to C8U G47C C53G U109G, for which the “polymerase ribozyme fitness (log ratio)” value was -6.29. The value for C8U U38C C115A was 0.431. The value for C8U C64A U112A was -4.99. The value for U9A G42A U129A was -2.88; that for C8U G61C was -1.18.

As to U9A C11G C15G A91C G93A, the “polymerase ribozyme fitness (log ratio)” value is -3.49. For the variant C8U A111G, the “polymerase ribozyme fitness (log ratio)” value was 1.25. Regarding C8U C13G C53G C72G U87A U133C, the “polymerase ribozyme fitness (log ratio)” value is -2.29.

Turning to C8U C11G G48C C56U C64U C89U G117U, the “polymerase ribozyme fitness (log ratio)” value is -5.48. Consider U9A G19U C88A C114A, for which the “polymerase ribozyme fitness (log ratio)” value stood at 1.72. As to C8U C12A G45A C56A, the “polymerase ribozyme fitness (log ratio)” value is 0.0537. As to C8U C40G G61A G120A, the “polymerase ribozyme fitness (log ratio)” value worked out at 1.65. For C8U C70U C79G C94G, the “polymerase ribozyme fitness (log ratio)” value is -3.8.

On to C8U C97U, for which the “polymerase ribozyme fitness (log ratio)” value is -0.0319. U9A A24G: the “polymerase ribozyme fitness (log ratio)” value was -0.725. Turning to C8U C64A, the “polymerase ribozyme fitness (log ratio)” value is -6.53. As for U9A G39A, the figure is 0.185; as for U9A C49U G110A, -1.43. On to U9A G39U G48A C72G C88U C89U G110C, for which the “polymerase ribozyme fitness (log ratio)” value is -6.13. Take U9A C12A C124U: the “polymerase ribozyme fitness (log ratio)” value stood at 2.01. The value for U9A C34G C76G C85G was -6.38; that for C8U C86A G113C U130G was -2.85. As for U9A C73A A95G C104A G110U, the figure is -3.62; as for C8U C40A C86A U130C, -2. As for U9A C56A G61C G77U G117U, the figure is -2.13; as for U9A C40G, 0.644. In the case of C8U A100C, the “polymerase ribozyme fitness (log ratio)” value is -0.899. The value for C8U A100U was -0.0529; that for C8U C85A A91U was -1.64; that for U9A A18U C64U U92C was -3.

As to U9A C13U C64G, the “polymerase ribozyme fitness (log ratio)” value is -5.17. Turning to C8U C15A A118U A121C, the “polymerase ribozyme fitness (log ratio)” value amounted to 0.853. As to C8U U9C G52U U55C U59C, the “polymerase ribozyme fitness (log ratio)” value came out at 0.781. As for C8U G93C G120A, the figure is 1.29; as for C8U C94U, 0.9; as for C8U A41U C97U, -0.942. With U9A C11U C40A U134G, the “polymerase ribozyme fitness (log ratio)” value is -0.696. As for U9A C62U G63A A95C A103G U109A, the figure is -7.15; as for C8U G47A, -0.477; as for U9A A43U C76A C85G G120A U130C, -1.48. The value for U9A G44U C56U G122A was -0.525; that for C8U G110A was 0.177.
